The values below come from patent publication US20220177587A1, “METHODS AND USES OF VARIANT CD80 FUSION PROTEINS AND RELATED CONSTRUCTS” (Alpine Immune Sciences, Inc., priority 2018, published 2022).

Like-named read-outs stand apart in the source and are kept apart here.

For test [1], the target named is PD-L1 (human) (UniProt Q9NZQ7). As to the kind of experiment: flow cytometry, CHO cells stably expressing PD-L1.
Target sequence in this assay (Q9NZQ7 19-290): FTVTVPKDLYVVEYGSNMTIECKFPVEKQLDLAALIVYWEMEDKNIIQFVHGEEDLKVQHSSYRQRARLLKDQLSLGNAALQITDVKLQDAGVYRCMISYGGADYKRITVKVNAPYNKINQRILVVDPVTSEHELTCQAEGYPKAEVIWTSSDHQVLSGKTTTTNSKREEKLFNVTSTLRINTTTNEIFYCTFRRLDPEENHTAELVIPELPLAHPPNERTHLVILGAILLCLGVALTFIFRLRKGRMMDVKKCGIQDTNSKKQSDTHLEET
The target in test [2] is human CTLA-4 (human) (UniProt P16410). As to the kind of experiment: flow cytometry, CHO/CTLA4 cells; MFI over CD80 WT IgV-Fc.
Test [3] shares this target. Put plainly: flow cytometry, CHO cells stably expressing CTLA4.
Test [4] concerns the target CD28 (human) (UniProt P10747). As to the kind of experiment: flow cytometry, Jurkat cells (CD28).
The target in test [5] is CD28 (human) (UniProt P10747). As to the kind of experiment: flow cytometry, Jurkat cells (CD28); MFI over CD80 WT IgV-Fc.
Test [6] addresses PD-L1 (human) (UniProt Q9NZQ7). Put plainly: flow cytometry, CHO/PD-L1 cells; MFI over CD80 WT IgV-Fc.
Target sequence in this assay (Q9NZQ7 19-290): as above
In test [7] the target is PD-L1 (human) (UniProt Q9NZQ7).
Target sequence in this assay (Q9NZQ7 19-290): as above
Test [8] concerns the target CD28 (human) (UniProt P10747).
The target in test [9] is PD-L1 (human) (UniProt Q9NZQ7). As to the kind of experiment: flow cytometry, CHO cells expressing huPD-L1.
Test [10] addresses CD28 (human) (UniProt P10747). As to the kind of experiment: flow cytometry, Jurkat/IL2 reporter cells (CD28).
For test [11], the target named is human CTLA-4 (human) (UniProt P16410). Put plainly: flow cytometry, CHO cells expressing huCTLA4.
For test [12], the target named is CD28 (human) (UniProt P10747). As to the kind of experiment: flow cytometry, Jurkat/IL2 reporter cells (CD28). The source holds these as a separate data set.
Test [13] addresses human CTLA-4 (human) (UniProt P16410). As to the kind of experiment: flow cytometry, CHO cells expressing huCTLA-4.
Test [14] deals with PD-L1 (human) (UniProt Q9NZQ7). Put plainly: flow cytometry, CHO cells expressing huPD-L1. This is another data set of the same source.
Target sequence in this assay (Q9NZQ7 19-290): as above
The target of test [15] is CD28 (human) (UniProt P10747). As to the kind of experiment: flow cytometry, Jurkat cells (CD28). The source holds these as a separate data set.
Test [16] deals with PD-L1 (human) (UniProt Q9NZQ7). Put plainly: flow cytometry, CHO cells stably expressing PD-L1. This is another data set of the same source.
Target sequence in this assay (Q9NZQ7 19-290): as above
Test [17] deals with PD-L1 (human) (UniProt Q9NZQ7). The source holds these as a separate data set.
Target sequence in this assay (Q9NZQ7 19-290): as above
In test [18] the target is CD28 (human) (UniProt P10747). This is another data set of the same source.
Test [19] concerns the target human CTLA-4 (human) (UniProt P16410). Put plainly: flow cytometry, CHO cells stably expressing CTLA4. The source holds these as a separate data set.
For test [20] the target is unchanged. Put plainly: flow cytometry, CHO cells stably expressing CTLA4. The source holds these as a separate data set.
For test [21], the target named is CD28 (human) (UniProt P10747). As to the kind of experiment: flow cytometry, Jurkat cells (CD28). The source holds these as a separate data set.
Test [22] has as its target PD-L1 (human) (UniProt Q9NZQ7). As to the kind of experiment: flow cytometry, CHO/huPD-L1 cells; vs WT CD80 ECD-Fc (Abcam).
Test [23] addresses CD28 (human) (UniProt P10747). Put plainly: flow cytometry, Jurkat/IL2 reporter cells (endogenous CD28).
In test [24] the target is PD-L1 (human) (UniProt Q9NZQ7). As to the kind of experiment: flow cytometry, CHO cells expressing huPD-L1. The source holds these as a separate data set.
In test [25] the target is PD-L1 (human) (UniProt Q9NZQ7). Put plainly: flow cytometry, MFI on CHO/PD-L1 over MFI on Jurkat (CD28).

Chain of human CTLA-4 (human) (P16410 36-223): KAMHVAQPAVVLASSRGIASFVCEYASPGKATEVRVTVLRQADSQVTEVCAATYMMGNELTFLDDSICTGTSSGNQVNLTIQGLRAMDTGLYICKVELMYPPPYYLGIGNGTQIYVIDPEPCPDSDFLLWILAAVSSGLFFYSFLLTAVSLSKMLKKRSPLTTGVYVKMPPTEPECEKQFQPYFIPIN

Regarding “variant CD80 IgV-Fc (inert) H18A/A26N/E35D/M47L/V68M/A71G/D90G (Fc fusion)”, the MFI at 33.3 nM was determined as 36300 MFI in the test with PD-L1 (human) [1], 21400 MFI with human CTLA-4 (human) [3] and 4910 MFI with CD28 (human) [4]. Further, the Fold change to WT CD80 with human CTLA-4 (human) [2] was 15.4 fold; with CD28 (human) [5], 48.2 fold; in the test with PD-L1 (human) [6], 220 fold.

As for “CD80 IgV-Fc E35D/M47I/V68M/Y87N (Fc fusion)”, the RLU at 5.0 nM: Fold Increase over WT CD80-IgV-Fc with PD-L1 (human) [7] and with CD28 (human) [8] was 2.4 fold throughout.

Turning to “variant CD80 IgV-Fc E35D/M47V/N48K/V68M/K89N (Fc fusion)”, the MFI at 33.3 nM with PD-L1 (human) [9] was found to be 89800 MFI; with CD28 (human) [10], 1350 MFI; with human CTLA-4 (human) [11] it was 807 MFI; with CD28 (human) [12] it was 11700 MFI; with human CTLA-4 (human) [13] it was 20900 MFI; with PD-L1 (human) [14], 14800 MFI.

For the substance “CD80 IgV-Fc H18Y/E35D/M47I/V68M/Y87N (Fc fusion)”, the values for the MFI at 33.3 nM with CD28 (human) [15], in the test with PD-L1 (human) [16] and in the test with human CTLA-4 (human) [19] were 1430 MFI, 9300 MFI and 19700 MFI, respectively. In addition, the RLU at 5.0 nM: Fold Increase over WT CD80-IgV-Fc in the test with PD-L1 (human) [17] and with CD28 (human) [18] was 5.5 fold each time.

Take “variant CD80 IgV-Fc A26E/E35D/M47L/A71G (Fc fusion)”: the MFI at 33.3 nM with human CTLA-4 (human) [20] amounted to 20600 MFI; in the test with PD-L1 (human) [9], 53400 MFI; in the test with human CTLA-4 (human) [11] it was 341000 MFI; with CD28 (human) [21], 236 MFI; with CD28 (human) [12], 2160 MFI.

Turning to “variant CD80 IgV-Fc (inert) H18V/A26S/E35D/M47L/V68M/A71G/D90G (Fc fusion)”, the values for the MFI at 33.3 nM with PD-L1 (human) [1], with human CTLA-4 (human) [3] and with CD28 (human) [4] were 73900 MFI, 24900 MFI and 8060 MFI, respectively. In addition, the Fold change to WT CD80 in the test with human CTLA-4 (human) [2] is 18 fold; in the test with CD28 (human) [5] it was 79 fold; with PD-L1 (human) [6], 448 fold.

As to “variant CD80 IgV-Fc Q33L/E35D/M43I/Y53F/T62S/L85Q (Fc fusion)”, the MFI at 33.3 nM with PD-L1 (human) [9] is 72100 MFI; in the test with CD28 (human) [12], 1024 MFI.

For “variant CD80 IgV-Fc D46V/V68M (Fc fusion)”, in the test with PD-L1 (human) [22], the Fold change to WT CD80 was 17.7 fold. For the same substance, the MFI at 33.3 nM in the test with CD28 (human) [10] came out at 556 MFI; with human CTLA-4 (human) [13] it was 5330 MFI; in the test with PD-L1 (human) [14], 2270 MFI.

Regarding “CD80 IgV-Fc H18Y/E35D/M38I/M47L/V68M/L85M (Fc fusion)”, the RLU at 5.0 nM: Fold Increase over WT CD80-IgV-Fc with PD-L1 (human) [7] and in the test with CD28 (human) [8] was 0.5 fold in each case.

In the case of WT CD80 ECD-Fc (R&D) (Fc fusion), the MFI at 33.3 nM with PD-L1 (human) [9] worked out at 11900 MFI; in the test with CD28 (human) [23], 7630 MFI; with PD-L1 (human) [24], 7940 MFI; with CD28 (human) [12] it was 18000 MFI.

Take “CD80 IgV-Fc H18Y/E35D/M47L/V68M/A71G/L85M (Fc fusion)”: the results for the Fold change to WT CD80 in the test with CD28 (human) [15], with PD-L1 (human) [16] and with human CTLA-4 (human) [19] were 69.1 fold, 140 fold and 19.8 fold, respectively. Moreover, the MFI at 33.3 nM with CD28 (human) [15] came to 2850 MFI; in the test with PD-L1 (human) [16] it was 9890 MFI; with human CTLA-4 (human) [19], 20700 MFI. For the same substance, the Ratio of PDL1:CD28 in the test with PD-L1 (human) [25] came to 3.5. Moreover, the RLU at 5.0 nM: Fold Increase over WT CD80-IgV-Fc in the test with PD-L1 (human) [17] and in the test with CD28 (human) [18] was 5.5 fold each time.

With “CD80 IgV-Fc H18Y/E35D/M47L/Y53F/V68M/A71G (Fc fusion)”, the Fold change to WT CD80 is 11.6 fold with CD28 (human) [15], 135 fold with PD-L1 (human) [16] and 18.7 fold with human CTLA-4 (human) [19]. For the same substance, the MFI at 33.3 nM turned out to be 478 MFI in the test with CD28 (human) [15], 9580 MFI in the test with PD-L1 (human) [16] and 19500 MFI with human CTLA-4 (human) [19]. The RLU at 5.0 nM: Fold Increase over WT CD80-IgV-Fc with PD-L1 (human) [7] stood at 0.3 fold; in the test with CD28 (human) [8], 0.3 fold; with PD-L1 (human) [17] it was 5.7 fold; with CD28 (human) [18], 5.7 fold. In addition, in the test with PD-L1 (human) [25], the Ratio of PDL1:CD28 was 20.

Take “variant CD80 IgV-Fc (inert) H18A/A26P/E35D/M47L/V68M/A71G/D90G (Fc fusion)”: the MFI at 33.3 nM with PD-L1 (human) [1] stood at 33400 MFI; with human CTLA-4 (human) [3], 23800 MFI; in the test with CD28 (human) [4] it was 4730 MFI. Besides, the Fold change to WT CD80 in the test with human CTLA-4 (human) [2] turned out to be 17.2 fold; with CD28 (human) [5] it was 46.4 fold; with PD-L1 (human) [6], 203 fold.
